According to article PMC10009755 (Journal of Medicinal Chemistry, 2023):

Molecular target: T1, wild-type ubiquitin (UniProt P0CG48 1-76)
T1 construct: ubiquitin, the cut product of the ubiquitin precursors; called 'wild-type ubiquitin'
Experiment: SPR; USP21 immobilised by amine coupling on a CM5 chip; Biacore S200, A-B-A injection; 1 uM compound 18 as analyte A, then ubiquitin titrated in 1:2 dilutions from 25 uM; 15 °C
Details: both partners purified

B1: human USP21 (Q9UK80, 209-563) (domain or fragment, UniProt Q9UK80 209-563, looked up)
chain: SGHVGLRNLGNTCFLNAVLQCLSSTRPLRDFCLRRDFRQEVPGGGRAQELTEAFADVIGALWHPDSCEAVNPTRFRAVFQKYVPSFSGYSQQDAQEFLKLLMERLHLEINRRGRRAPPILANGPVPSPPRRGGALLEEPELSDDDRANLMWKRYLEREDSKIVDLFVGQLKSCLKCQACGYRSTTFEVFCDLSLPIPKKGFAGGKVSLRDCFNLFTKEEELESENAPVCDRCRQKTRSTKKLTVQRFPRILVLHLNRFSASRGSIKKSSVGVDFPLQRLSLGDFASDKAGSPVYQLYALCNHSGSVHYGHYTALCRCQTGWHVYNDSRVSPVSENQVASSEGYVLFYQLMQEPPR
notes: cDNA optimized for expression in E. coli; The His tag is thrombin-cleavable; also called recombinant USP21; source: E. coli BL21(DE3), purified (Ni-NTA, MonoS cation exchange, SEC)
**Q.** Does B1 bind?
**A.** binds
